Test results from patent US20230220021A1, “CYCLIC PEPTIDE INHIBITORS OF PSD-95 AND USES THEREOF” (University of Copenhagen, priority 2020, published 2023).
Where a SMILES comes first, the peptide text is derived from it. [ ]: non-standard residue; d: D form.

The molecules below were run against T1, PSD-95-PDZ2 (Homo sapiens, UniProt P78352) (assay: Fluorescence polarization (FP) competition assay against cyclic nNOS TAMRA probe). Conditions: FP competition.
T1 construct: 7xHis (N); made in house; host or cells: Escherichia coli B21 pLys (for the mutants, 'as previously described')
Assay type: binding

T1 sequence (P78352 160-246 limits assumed): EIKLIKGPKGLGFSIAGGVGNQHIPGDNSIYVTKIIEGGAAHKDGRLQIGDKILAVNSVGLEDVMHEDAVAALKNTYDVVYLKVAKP

Row | effect on interaction with PSD-95-PDZ2 (in words) | Molecule
1 | abolishes binding | Cyclo-(THLEATFTGDGTPKTIRVTQpG(Qα)) (cyclo(THLEATFTGDGTPKTIRVTQ[dP]GQ); SMILES CC[C@H](C)[C@@H]1NC(=O)[C@H]([C@@H](C)O)NC(=O)[C@H](CCCCN)NC(=O)[C@@H]2CCCN2C(=O)[C@H]([C@@H](C)O)NC(=O)CNC(=O)[C@H](CC(=O)O)NC(=O)CNC(=O)[C@H]([C@@H](C)O)NC(=O)[C@H](Cc2ccccc2)NC(=O)[C@H]([C@@H](C)O)NC(=O)[C@H](C)NC(=O)[C@H](CCC(=O)O)NC(=O)[C@H](CC(C)C)NC(=O)[C@H](Cc2c[nH]cn2)NC(=O)[C@H]([C@@H](C)O)NC(=O)[C@H](CCC(N)=O)NC(=O)CNC(=O)[C@H]2CCCN2C(=O)[C@H](CCC(N)=O)NC(=O)[C@H]([C@@H](C)O)NC(=O)[C@H](C(C)C)NC(=O)[C@H](CCCNC(=N)N)NC1=O) [SEQ ID NO: 59]
2 | abolish the interaction | Cyclo-(THLEAlloTTFTGDGTPKTIRVTQpG(Qα)) (THLEXTFTGDGTPKTIRVTQPGQ; cyclic; allo-threonine at 109; D-proline; cyclized peptide; (5)..(5) X is AlloT; (21)..(21) is D-AA) [SEQ ID NO: 80]
3 | abolished the interaction | Cyclo-(THLETT ? -Me-FTGDGTPKTIRVTQpG(Qα)) (THLETTXTGDGTPKTIRVTQPGQ; cyclic; N-methyl F111; D-proline; cyclized peptide; (7)..(7) X is N-Me-F; (21)..(21) is D-AA) [SEQ ID NO: 90]

Same assay, conditions: FP competition, cyclic nNOS TAMRA probe; mean of triplicates; N.B. = not binding; read-out: Ki

Row | Molecule | Ki
4 | CC[C@H](C)[C@@H]1NC(=O)[C@H]([C@@H](C)O)NC(=O)[C@H](CCCCN)NC(=O)[C@@H]2CCCN2C(=O)[C@H]([C@@H](C)O)NC(=O)CNC(=O)[C@H](CC(=O)O)NC(=O)CNC(=O)[C@H]([C@@H](C)O)NC(=O)[C@H](Cc2ccccc2)NC(=O)[C@H]([C@@H](C)O)NC(=O)[C@H]([C@@H](C)O)NC(=O)[C@H](CCC(=O)O)NC(=O)[C@H](CC(C)C)NC(=O)[C@H](Cc2c[nH]cn2)NC(=O)[C@H]([C@@H](C)O)NC(=O)[C@H](CCC(N)=O)NC(=O)CNC(=O)[C@H]2CCCN2C(=O)[C@@H](CCC(N)=O)NC(=O)[C@H]([C@@H](C)O)NC(=O)[C@H](C(C)C)NC(=O)[C@H](CCCNC(=N)N)NC1=O [compound 129] | 11100 nM
5 | CC[C@H](C)[C@@H]1NC(=O)[C@H]([C@@H](C)O)NC(=O)[C@H](CCCCN)NC(=O)[C@@H]2CCCN2C(=O)[C@H](CC(=O)O)NC(=O)CNC(=O)[C@H](CC(=O)O)NC(=O)CNC(=O)[C@H](Cc2c[nH]c3ccccc23)NC(=O)[C@H](Cc2ccccc2)NC(=O)[C@H]([C@@H](C)O)NC(=O)[C@H]([C@@H](C)O)NC(=O)[C@H](CCC(=O)O)NC(=O)[C@H](CC(C)C)NC(=O)[C@H](Cc2c[nH]cn2)NC(=O)[C@H]([C@@H](C)O)NC(=O)[C@H](CCC(N)=O)NC(=O)CNC(=O)[C@H]2CCCN2C(=O)[C@H](CCC(N)=O)NC(=O)[C@H]([C@@H](C)O)NC(=O)[C@H](C(C)C)NC(=O)[C@H](CCCNC(=N)N)NC1=O [compound 130] (cyclo(THLETTFWGDGDPKTIRVTQ[dP]GQ)) | 650 nM
6 | CC[C@H](C)[C@@H]1NC(=O)[C@H]([C@@H](C)O)NC(=O)[C@H](CCCCN)NC(=O)[C@@H]2CCCN2C(=O)[C@H](CCC(=O)O)NC(=O)CNC(=O)[C@@H](CC(=O)O)NC(=O)CNC(=O)[C@H](Cc2c[nH]c3ccccc23)NC(=O)[C@H](Cc2ccccc2)NC(=O)[C@H]([C@@H](C)O)NC(=O)[C@H]([C@@H](C)O)NC(=O)[C@H](CCC(=O)O)NC(=O)[C@H](CC(C)C)NC(=O)[C@H](Cc2c[nH]cn2)NC(=O)[C@H]([C@@H](C)O)NC(=O)[C@H](CCC(N)=O)NC(=O)CNC(=O)[C@H]2CCCN2C(=O)[C@H](CCC(N)=O)NC(=O)[C@H]([C@@H](C)O)NC(=O)[C@H](C(C)C)NC(=O)[C@H](CCCNC(=N)N)NC1=O [compound 135] (cyclo(THLETTFWG[dD]GEPKTIRVTQ[dP]GQ)) | 190 nM

More lines, now with the values ahead:

Row | Ki | Molecule
7 | 950 nM | CC[C@H](C)[C@@H]1NC(=O)[C@H]([C@@H](C)O)NC(=O)[C@H](CCCCN)NC(=O)[C@@H]2CCCN2C(=O)[C@H]([C@@H](C)O)NC(=O)[C@@H]2CCCN2C(=O)[C@H](CC(=O)O)NC(=O)CNC(=O)[C@H](Cc2c[nH]c3ccccc23)NC(=O)[C@H](Cc2ccccc2)NC(=O)[C@H]([C@@H](C)O)NC(=O)[C@H]([C@@H](C)O)NC(=O)[C@H](CCC(=O)O)NC(=O)[C@H](CC(C)C)NC(=O)[C@H](Cc2c[nH]cn2)NC(=O)[C@H]([C@@H](C)O)NC(=O)[C@H](CCC(N)=O)NC(=O)CNC(=O)[C@H]2CCCN2C(=O)[C@H](CCC(N)=O)NC(=O)[C@H]([C@@H](C)O)NC(=O)[C@H](C(C)C)NC(=O)[C@H](CCCNC(=N)N)NC1=O [compound 131] (cyclo(THLETTFWGDPTPKTIRVTQ[dP]GQ))
8 | 260 nM | CC[C@H](C)[C@@H]1NC(=O)[C@H]([C@@H](C)O)NC(=O)[C@H](CCCCN)NC(=O)[C@@H]2CCCN2C(=O)[C@H](CCC(=O)O)NC(=O)[C@H](C)NC(=O)[C@H](CC(=O)O)NC(=O)CNC(=O)[C@H](Cc2c[nH]c3ccccc23)NC(=O)[C@H](Cc2ccccc2)NC(=O)[C@H]([C@@H](C)O)NC(=O)[C@H]([C@@H](C)O)NC(=O)[C@H](CCC(=O)O)NC(=O)[C@H](CC(C)C)NC(=O)[C@H](Cc2c[nH]cn2)NC(=O)[C@H]([C@@H](C)O)NC(=O)[C@H](CCC(N)=O)NC(=O)CNC(=O)[C@H]2CCCN2C(=O)[C@H](CCC(N)=O)NC(=O)[C@H]([C@@H](C)O)NC(=O)[C@H](C(C)C)NC(=O)[C@H](CCCNC(=N)N)NC1=O [compound 134] (cyclo(THLETTFWGDAEPKTIRVTQ[dP]GQ))

Same assay, conditions: FP competition, relative to unsubstituted cyclic peptide

Row | fold lowered (decreased) binding affinity of the cyclic peptide | Molecule
9 | 7 fold | Cyclo-(THLESTFTGDGTPKTIRVTQpG(Qα)) (cyclo(THLESTFTGDGTPKTIRVTQ[dP]GQ); SMILES CC[C@H](C)[C@@H]1NC(=O)[C@H]([C@@H](C)O)NC(=O)[C@H](CCCCN)NC(=O)[C@@H]2CCCN2C(=O)[C@H]([C@@H](C)O)NC(=O)CNC(=O)[C@H](CC(=O)O)NC(=O)CNC(=O)[C@H]([C@@H](C)O)NC(=O)[C@H](Cc2ccccc2)NC(=O)[C@H]([C@@H](C)O)NC(=O)[C@H](CO)NC(=O)[C@H](CCC(=O)O)NC(=O)[C@H](CC(C)C)NC(=O)[C@H](Cc2c[nH]cn2)NC(=O)[C@H]([C@@H](C)O)NC(=O)[C@H](CCC(N)=O)NC(=O)CNC(=O)[C@H]2CCCN2C(=O)[C@H](CCC(N)=O)NC(=O)[C@H]([C@@H](C)O)NC(=O)[C@H](C(C)C)NC(=O)[C@H](CCCNC(=N)N)NC1=O) [SEQ ID NO: 52]
10 | 25 fold | Cyclo-(THLETTFTGDGTPKSIRVTQpG(Qα)) (cyclo(THLETTFTGDGTPKSIRVTQ[dP]GQ); SMILES CC[C@H](C)[C@@H]1NC(=O)[C@H](CO)NC(=O)[C@H](CCCCN)NC(=O)[C@@H]2CCCN2C(=O)[C@H]([C@@H](C)O)NC(=O)CNC(=O)[C@H](CC(=O)O)NC(=O)CNC(=O)[C@H]([C@@H](C)O)NC(=O)[C@H](Cc2ccccc2)NC(=O)[C@H]([C@@H](C)O)NC(=O)[C@H]([C@@H](C)O)NC(=O)[C@H](CCC(=O)O)NC(=O)[C@H](CC(C)C)NC(=O)[C@H](Cc2c[nH]cn2)NC(=O)[C@H]([C@@H](C)O)NC(=O)[C@H](CCC(N)=O)NC(=O)CNC(=O)[C@H]2CCCN2C(=O)[C@H](CCC(N)=O)NC(=O)[C@H]([C@@H](C)O)NC(=O)[C@H](C(C)C)NC(=O)[C@H](CCCNC(=N)N)NC1=O) [SEQ ID NO: 50]
